Experimental data published in article PMC4451617.

Experiments:
[1] = molecular target: ErbB4 receptor (rat (endogenous in rat brain membranes and cultured rat hippocampal neurons)); test: co-IP; ErbB4 immunoprecipitated with mAB10 from lysates (PBS + 1% TX-100) of cultured rat hippocampal neurons (>DIV 28), unstimulated or 10 nM NRG2 for 10 min; western blot, densitometric ratio of glutamate receptor subunit over ErbB4
[2] = molecular target: ErbB4 receptor (rat (endogenous in rat brain membranes and cultured rat hippocampal neurons))

Chain of ErbB4 receptor (rat (endogenous in rat brain membranes and cultured rat hippocampal neurons)) (Q62956 26-1308): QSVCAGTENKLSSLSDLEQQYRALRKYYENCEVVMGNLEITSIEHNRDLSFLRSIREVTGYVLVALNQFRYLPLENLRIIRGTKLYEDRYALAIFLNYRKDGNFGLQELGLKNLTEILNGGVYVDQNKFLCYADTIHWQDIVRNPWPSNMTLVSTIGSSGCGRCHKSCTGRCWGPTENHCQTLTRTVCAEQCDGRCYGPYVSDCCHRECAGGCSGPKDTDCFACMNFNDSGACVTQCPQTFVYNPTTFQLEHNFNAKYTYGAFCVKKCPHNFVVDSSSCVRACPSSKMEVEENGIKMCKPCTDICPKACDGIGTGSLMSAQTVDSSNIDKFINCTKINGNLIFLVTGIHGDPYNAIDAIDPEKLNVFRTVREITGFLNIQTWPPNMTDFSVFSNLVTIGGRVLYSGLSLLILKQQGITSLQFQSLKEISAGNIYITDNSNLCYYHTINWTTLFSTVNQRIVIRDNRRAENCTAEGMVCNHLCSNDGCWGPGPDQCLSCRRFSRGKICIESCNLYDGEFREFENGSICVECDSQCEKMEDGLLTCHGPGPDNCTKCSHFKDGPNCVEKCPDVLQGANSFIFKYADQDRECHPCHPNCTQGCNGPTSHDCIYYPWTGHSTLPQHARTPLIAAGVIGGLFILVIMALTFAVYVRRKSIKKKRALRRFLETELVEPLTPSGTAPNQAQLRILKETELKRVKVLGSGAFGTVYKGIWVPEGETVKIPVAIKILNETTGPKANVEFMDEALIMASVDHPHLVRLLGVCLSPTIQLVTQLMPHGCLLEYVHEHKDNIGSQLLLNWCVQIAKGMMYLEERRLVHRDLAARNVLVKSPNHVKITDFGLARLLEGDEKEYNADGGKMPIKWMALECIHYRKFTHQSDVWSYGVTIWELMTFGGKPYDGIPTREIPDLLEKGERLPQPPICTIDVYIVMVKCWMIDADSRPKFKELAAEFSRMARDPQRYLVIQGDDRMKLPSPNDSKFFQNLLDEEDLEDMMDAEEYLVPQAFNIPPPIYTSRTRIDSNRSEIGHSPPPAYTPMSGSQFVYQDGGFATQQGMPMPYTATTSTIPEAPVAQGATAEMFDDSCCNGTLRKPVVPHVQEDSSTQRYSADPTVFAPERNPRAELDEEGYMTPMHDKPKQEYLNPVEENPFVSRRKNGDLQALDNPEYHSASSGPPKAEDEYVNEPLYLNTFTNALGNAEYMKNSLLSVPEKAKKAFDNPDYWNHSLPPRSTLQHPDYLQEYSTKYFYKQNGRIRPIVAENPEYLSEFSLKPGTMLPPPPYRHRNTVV

| Substance | co-immunoprecipitation after NRG2, % of unstimulated controls (% of controls) [1] | whole-cell NMDA-evoked currents (100 μM NMDA, +40 mV) in ErbB4+ cultured hippocampal interneurons after 10 min of 10 nM NRG2, relative to baseline; ErbB4-negative neurons not affected (% of baseline) [2] |
| --- | --- | --- |
| GluN2B subunit of the NMDA receptor (from UniProt Q00960 27-1482) | 198 | – |
| recombinant NRG2-ECD (neuregulin 2 extracellular domain) (ligand) | – | 43 |
